The results in this text go back to article doi:10.1101/2022.02.08.479556.

In the experiment the target is SARS-CoV-2 nucleocapsid protein N:G215C mutant (SARS-CoV-2) (UniProt P0DTC9). Nature of the experiment: AUC.

pKd: −log10 of the molar value.

“SARS-CoV-2 nucleocapsid protein N:G215C mutant (from UniProt P0DTC9 1-419) (natural protein)”: the pKd (in general, −log10 of the Kd, conventionally taken in molar units) is 5.48.
